Source: article PMC10694151, “Regulation of the cell division hydrolase RipC by the FtsEX system in Mycobacterium tuberculosis” (Nature Communications, 2023)

B2: FtsX (Rv3101c) of Mycobacterium tuberculosis (natural protein)
chain: MRFGFLLNEVLTGFRRNVTMTIAMILTTAISVGLFGGGMLVVRLADSSRAIYLDRVESQVFLTEDVSANDSSCDTTACKALREKIETRSDVKAVRFLNRQQAYDDAIRKFPQFKDVAGKDSFPASFIVKLENPEQHKDFDTAMKGQPGVLDVLNQKELIDRLFAVLDGLSNAAFAVALVQAIGAILLIANMVQVAAYTRRTEIGIMRLVGASRWYTQLPFLVEAMLAATMGVGIAVAGLMVVRALFLENALNQFYQANLIAKVDYADILFITPWLLLLGVAMSGLTAYLTLRLYVRR
notes: also called MtbFtsX

Legend:
MtbFtsEX/RipC = molecular target: T1, MtbFtsEX/RipC (Mycobacterium tuberculosis, UniProt O05779)
T1 construct: gene ftsE
T1 sequence (P9WHU3 34-385, one chain of several, further chain): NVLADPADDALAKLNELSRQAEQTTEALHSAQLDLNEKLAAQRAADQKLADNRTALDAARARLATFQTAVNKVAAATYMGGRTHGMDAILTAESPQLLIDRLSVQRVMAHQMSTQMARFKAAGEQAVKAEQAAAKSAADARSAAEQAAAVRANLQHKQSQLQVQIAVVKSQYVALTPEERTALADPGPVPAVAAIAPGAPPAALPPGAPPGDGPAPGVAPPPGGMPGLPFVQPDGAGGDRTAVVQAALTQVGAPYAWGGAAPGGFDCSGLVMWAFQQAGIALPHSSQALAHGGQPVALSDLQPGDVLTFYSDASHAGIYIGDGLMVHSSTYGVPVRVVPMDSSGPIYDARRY

[1] = molecular target: B2; assay: cryo-EM structure; FtsEX or FtsEX-RipC in peptidiscs, 3 mg/ml, ATP-free; conditions: both partners purified
[2] = molecular target: the molecule itself; assay: as above

Nc1ncnc2c1ncn2[C@@H]1O[C@H](COP(=O)(O)OP(=O)(O)O)[C@@H](O)[C@H]1O [ADP]
cryo-EM structure, 5.7 Å, polyalanine model (MtbFtsEX/RipC): with EM density compatible with an ADP molecule

B1: FtsE (Rv3102c) of Mycobacterium tuberculosis (natural protein)
chain: MMITLDHVTKQYKSSARPALDDINVKIDKGEFVFLIGPSGSGKSTFMRLLLAAETPTSGDVRVSKFHVNKLRGRHVPKLRQVIGCVFQDFRLLQQKTVYDNVAFALEVIGKRTDAINRVVPEVLETVGLSGKANRLPDELSGGEQQRVAIARAFVNRPLVLLADEPTGNLDPETSRDIMDLLERINRTGTTVLMATHDHHIVDSMRQRVVELSLGRLVRDEQRGVYGMDR
notes: also called MtbFtsE; NBD
binding result [1]: binds

B2
stoichiometry N [2]: 2
